Measured values taken from patent US20230212319A1, “NOVEL ANTIGEN BINDING DOMAINS AND SYNTHETIC ANTIGEN RECEPTORS INCORPORATING THE SAME” (University of Southern California, priority 2020, published 2023).

B1: 22288 (protein)
chain: MALPVTALLLPLALLLHAARPACLFNQEVQIPLTESYCGPCPKNWICYKNNCYQFFDESKNWYESQASCMSQNASLLKVYSKEDQDLLKLVKSAHWMGLVHIPTNGSWQWEDGSILSPNLLTIIEMQKGDCALYASSFKGYIENCSTPNTYICMQRTVLEGQPKANPTVTLFPPSSEELQANKATLVCLISDFYPGAVTVAWKADGSPVKAGVETTKPSKQSNNKYAASSYLSLTPEQWKSHRSYSCQVTHEGSTVEKTVAPTECSPIKTDVITMDPKDNCSKDANDTLLLQLTNTSAYYMYLLLLLKSVVYFAIITCCLLRRTAFCCNGEKSRAKRSGSGATNFSLLKQAGDVEENPGPTSATMDWIWRILFLVGAATGAHSGPQVQLQESGGGLAQAGGSLRLSCAASGRTFSMGWFRQAPGKEREFVAAITYSGGSPYYASSVRGRFTISRDNAKNTVYLQMNSLKPEDTAVYYCAANPTYGSDWNAENWGQGTQVTVSSGSGGGGSGGGGSGGGGSFEDLFNQEVQIPLTESYCGPCPKNWICYKNNCYQFFDESKNWYESQASCMSQNASLLKVYSKEDQDLLKLVKSAHWMGLVHIPTNGSWQWEDGSILSPNLLTIIEMQKGDCALYASSFKGFIENCSTPNTYICMQRTVTRASTKGPSVFPLAPSSKSTSGGTAALGCLVKDYFPEPVTVSWNSGALTSGVHTFPAVLQSSGLYSLSSVVTVPSSSLGTQTYICNVNHKPSNTKVDKRVEPKSCEVKTDSTDHVKPKETENTKQPSKSCHKPKAIVHTEKVNMMSLTVLGLRMLFAKTVAVNFLLTAKLFFLRAKRSGSGVKQTLNFDLLKLAGDVESNPGPSRGHMTEYKPTVRLATRDDVPRAVRTLAAAFADYPATRHTVDPDRHIERVTELQELFLTRVGLDIGKVWVADDGAAVAVWTTPESVEAGAVFAEIGPRMAELSGSRLAAQQQMEGLLAPHRPKEPAWFLATVGVSPDHQGKGLGSAVVLPGVEAAERAGVPAFLETSAPRNLPFYERLGFTVTADVEVPEGPRTWCMTRKPGA
B2: 22286 (protein)
chain: MALPVTALLLPLALLLHAARPACLFNQEVQIPLTESYCGPCPKNWICYKNNCYQFFDESKNWYESQASCMSQNASLLKVYSKEDQDLLKLVKSAHWMGLVHIPTNGSWQWEDGSILSPNLLTIIEMQKGDCALYASSFKGYIENCSTPNTYICMQRTVLEGQPKANPTVTLFPPSSEELQANKATLVCLISDFYPGAVTVAWKADGSPVKAGVETTKPSKQSNNKYAASSYLSLTPEQWKSHRSYSCQVTHEGSTVEKTVAPTECSPIKTDVITMDPKDNCSKDANDTLLLQLTNTSAYYMYLLLLLKSVVYFAIITCCLLRRTAFCCNGEKSRAKRSGSGATNFSLLKQAGDVEENPGPTSATMDWIWRILFLVGAATGAHSGPQVQLQESGGGLAQAGGSLRLSCAASGRTFSMGWFRQAPGKEREFVAAITYSGGSPYYASSVRGRFTISRDNAKNTVYLQMNSLKPEDTAVYYCAANPTYGSDWNAENWGQGTQVTVSSGSGGGGSGGGGSGGGGSFEQVQLQQPGAELVKPGASVKMSCKASGYAFSSYWINWMKQKPGQGLEWIGQIYPGDGDTNYNGKFKGRATLTADTSSSTAYMQLSSLTSEDSAVYFCARSITTVVGCAMDYWGQGTSVTVSSTRASTKGPSVFPLAPSSKSTSGGTAALGCLVKDYFPEPVTVSWNSGALTSGVHTFPAVLQSSGLYSLSSVVTVPSSSLGTQTYICNVNHKPSNTKVDKRVEPKSCEVKTDSTDHVKPKETENTKQPSKSCHKPKAIVHTEKVNMMSLTVLGLRMLFAKTVAVNFLLTAKLFFLRAKRSGSGVKQTLNFDLLKLAGDVESNPGPSRGHMTEYKPTVRLATRDDVPRAVRTLAAAFADYPATRHTVDPDRHIERVTELQELFLTRVGLDIGKVWVADDGAAVAVWTTPESVEAGAVFAEIGPRMAELSGSRLAAQQQMEGLLAPHRPKEPAWFLATVGVSPDHQGKGLGSAVVLPGVEAAERAGVPAFLETSAPRNLPFYERLGFTVTADVEVPEGPRTWCMTRKPGA
B3: 22057 (protein)
chain: MALPVTALLLPLALLLHAARPQLQLQESGPGLVKPSETLSLTCTVSGDSISSGDYYWGWIRQPPGKGLEWIGHIYYSGVTYYNPSLKSRVTISVDTSRNQFSLKLSSVTAADTAVYYCTREDSSNWRSRGQGTLVTVSSLEGSEVKTDSTDHVKPKETENTKQPSKSCHKPKAIVHTEKVNMMSLTVLGLRMLFAKTVAVNFLLTAKLFFLRAKRSGSGVKQTLNFDLLKLAGDVESNPGPTSMDWIWRILFLVGAATGAHSFEVQLVESGGGVVQPGRSLRLSCAASGFSFSGYGMHWVRQAPGKGLEWVAYISYDGSNKYYADSVKGRFTISRDNSKNTLYLQMNSLRAEDTAVYYCAKDPAWGLRLGESSSYDFDIWGQGTMVTVSSTRDKTHTCPPCPAGRADCGFTSESYQQGVLSATILYEILLGKATLYAVLVSALVLMAMVKRKDFRAKRSGSGATNFSLLKQAGDVEENPGPSRGHMTEYKPTVRLATRDDVPRAVRTLAAAFADYPATRHTVDPDRHIERVTELQELFLTRVGLDIGKVWVADDGAAVAVWTTPESVEAGAVFAEIGPRMAELSGSRLAAQQQMEGLLAPHRPKEPAWFLATVGVSPDHQGKGLGSAVVLPGVEAAERAGVPAFLETSAPRNLPFYERLGFTVTADVEVPEGPRTWCMTRKPGA
B4: 22058 (protein)
chain: MALPVTALLLPLALLLHAARPQLQLQESGPGLVKPSETLSLTCTVSGDSISSGDYYWGWIRQPPGKGLEWIGHIYYSGVTYYNPSLKSRVTISVDTSRNQFSLKLSSVTAADTAVYYCTREDSSNWRSRGQGTLVTVSSLEDLKNVFPPEVAVFEPSEAEISHTQKATLVCLATGFYPDHVELSWWVNGKEVHSGVCTDPQPLKEQPALNDSRYCLSSRLRVSATFWQNPRNHFRCQVQFYGLSENDEWTQDRAKPVTQIVSAEAWGRADCGFTSESYQQGVLSATILYEILLGKATLYAVLVSALVLMAMVKRKDSRGRAKRSGSGATNFSLLKQAGDVEENPGPTSMDWIWRILFLVGAATGAHSFEVQLVESGGGVVQPGRSLRLSCAASGFSFSGYGMHWVRQAPGKGLEWVAYISYDGSNKYYADSVKGRFTISRDNSKNTLYLQMNSLRAEDTAVYYCAKDPAWGLRLGESSSYDFDIWGQGTMVTVSSTRIQNPDPAVYQLRDSKSSDKSVCLFTDFDSQTNVSQSKDSDVYITDKCVLDMRSMDFKSNSAVAWSNKSDFACANAFNNSIIPEDTFFPSPESSCDVKLVEKSFETDTNLNFQNLSVIGFRILLLKVAGFNLLMTLRLWSSRAKRSGSGVKQTLNFDLLKLAGDVESNPGPSRGHMTEYKPTVRLATRDDVPRAVRTLAAAFADYPATRHTVDPDRHIERVTELQELFLTRVGLDIGKVWVADDGAAVAVWTTPESVEAGAVFAEIGPRMAELSGSRLAAQQQMEGLLAPHRPKEPAWFLATVGVSPDHQGKGLGSAVVLPGVEAAERAGVPAFLETSAPRNLPFYERLGFTVTADVEVPEGPRTWCMTRKPGA
B5: SEQ ID NO: 22293: bispecific CD19xCD20 SAR with RZIP leucine zipper domain on hu-mR005-1 vL and CD20-VHH-USC1-2HCD26 on the vH domain (protein)
chain: MALPVTALLLPLALLLHAARPACMDPDLEIRAAFLRQRNTALRTEVAELEQEVQRLENEVSQYETRYGPLGGGKGTGGGGSGGGGSGGGGSEFDIQMTQSPSSLSASVGDRVTITCKASDHINNWLAWYQQKPGQAPKLLIYGATTLETGVPSRFSGSGSGTDYTLTISSLQPEDFATYYCQQSWNTPWTFGQGTKLEIKRLEDLKNVFPPEVAVFEPSEAEISHTQKATLVCLATGFYPDHVELSWWVNGKEVHSGVCTDPQPLKEQPALNDSRYCLSSRLRVSATFWQNPRNHFRCQVQFYGLSENDEWTQDRAKPVTQIVSAEAWGRADCGFTSESYQQGVLSATILYEILLGKATLYAVLVSALVLMAMVKRKDSRGRAKRSGSGATNFSLLKQAGDVEENPGPTSATMDWIWRILFLVGAATGAHSGPEVQLVESGGGLVQAGGSLRLSCAASGRTFSMGWFRQAPGKEREFVAAITYSGGSPYYADSVKGRFTISRDNAKNTVYLQMNSLKPEDTAVYYCAANPTYGSDWNAENWGQGTQVTVSSGSGGGGSGGGGSGGGGSFEQVQLQQPGAELVKPGASVKMSCKASGYAFSSYWINWMKQKPGQGLEWIGQIYPGDGDTNYNGKFKGRATLTADTSSSTAYMQLSSLTSEDSAVYFCARSITTVVGCAMDYWGQGTSVTVSSTRIQNPDPAVYQLRDSKSSDKSVCLFTDFDSQTNVSQSKDSDVYITDKCVLDMRSMDFKSNSAVAWSNKSDFACANAFNNSIIPEDTFFPSPESSCDVKLVEKSFETDTNLNFQNLSVIGFRILLLKVAGFNLLMTLRLWSSRAKRSGSGVKQTLNFDLLKLAGDVESNPGPSRGHMTEYKPTVRLATRDDVPRAVRTLAAAFADYPATRHTVDPDRHIERVTELQELFLTRVGLDIGKVWVADDGAAVAVWTTPESVEAGAVFAEIGPRMAELSGSRLAAQQQMEGLLAPHRPKEPAWFLATVGVSPDHQGKGLGSAVVLPGVEAAERAGVPAFLETSAPRNLPFYERLGFTVTADVEVPEGPRTWCMTRKPGA

What was measured:
Assay type in all cases: cell-based
LNCaP cells = experiment: JNG assay, co-culture with LNCaP cells; conditions: for NFAT-GFP ASSAY: LNCaP with PSMA-USC76-chVH-G4S-ULBP2-S3: LNCaP in presence of SAR adaptor PSMA-USC76-chVH-G4S-ULBP2-S3; for NFAT-GFP ASSAY: LNCaP: co-culture with LNCaP
Outline: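 Jurkat NFAT-GFP reporter cells stably expressing lentivirally delivered SARs (puromycin or blasticidin selection) were cocultured with target cells at E:T ~1:2 for ~4–18 h. GFP was read by FACS, and % GFP+ cells were scored against parental reporter cells (+/-, +, 2+…5+ ≈ 5%, 10%, 20%…50%).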

RAJI cells = experiment: JNG assay, co-culture with RAJI cells; conditions: JNG cells expressing construct, co-culture with Raji
Outline: (§1)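 Jurkat NFAT-GFP (JNG) cells stably transduced with SARs by lentivirus, with drug selection where the construct carried a resistance gene, then co-cultured with target cells at E:T ~1:2 for ~4–18 h. % GFP-positive cells measured by FACS against parental JNG; +/- to 5+ correspond to ~5–50% GFP-positive.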

L363 cells = experiment: JNG assay, co-culture with L363 cells; conditions: L363 cells (BCMA+), only in the presence of SAR adaptor BCMA-FHVH-74-EZIP (SEQ ID NO: 23119)
Outline: as §1

Molecule | NFAT-GFP ASSAY: LNCaP with PSMA-USC76-chVH-G4S-ULBP2-S3 (LNCaP cells) | NFAT-GFP ASSAY: Raji (RAJI cells) | NFAT-GFP ASSAY: LNCaP (LNCaP cells) | redirection to LNCaP cells (LNCaP cells; LNCaP (PSMA+) cells in the presence of SAR adaptor CD8SP-PSMA-USC76-chVH-EZIP (SEQ ID NO: 23118)) | GFP induction (L363 cells)
B1 | + (refer to approximately 5%, 10%, 20%, 30%, 40% and 50% GFP positive cells) | 3+ (refer to approximately 5%, 10%, 20%, 30%, 40% and 50% GFP positive cells) |  |  | 
B2 | + (refer to approximately 5%, 10%, 20%, 30%, 40% and 50% GFP positive cells) | + (refer to approximately 5%, 10%, 20%, 30%, 40% and 50% GFP positive cells) |  |  | 
B3 |  | +/- (refer to approximately 5%, 10%, 20%, 30%, 40% and 50% GFP positive cells) | + (refer to approximately 5%, 10%, 20%, 30%, 40% and 50% GFP positive cells) |  | 
B4 |  | +/- (refer to approximately 5%, 10%, 20%, 30%, 40% and 50% GFP positive cells) | + (refer to approximately 5%, 10%, 20%, 30%, 40% and 50% GFP positive cells) |  | 
B5 |  |  |  | could be redirected | robust induction of GFP
